{"source": "patent US10487337B2", "about": "“Methods for monocot plant improvement” (Agresearch Limited, priority 2014, dated 2019)", "molecules": {"B1": {"name": "PPD1: PEAPOD 1 protein of Arabidopsis thaliana, SEQ ID NO: 1 (protein, listed as Arabidopsis thaliana)", "chain": "MDVGVSPAKSILAKPLKLLTEEDISQLTREDCRKFLKDKGMRRPSWNKSQAIQQVLSLKALYEPGDDSGAGIFRKILVSQPVNPPRVTTTLIEPSNELEACGRVSYPEDNGACHRMDSPRSAEFSGGSGHFVSEKDGHKTTISPRSPAETSELVGQMTIFYSGKVNVYDGIPPEKARSIMHFAANPIDLPENGIFASSRMISKLISKEKMMELPQKGLEKANSSRDSGMEGQANRKVSLQRYREKRKDRKFSKAKKCPGVASSSLEMFLNCQPRMKAAYSQNLGCTGSPLHSQSPESQTKSPNLSVDLNSEGI"}}, "key": {"[1]": {"target": "T1, DELLA (RGA1) (Arabidopsis thaliana, UniProt Q9SLH3)", "T1 construct": "expressed in transfected cells; host or cells: yeast strain MaV203", "T1 sequence (Q9SLH3 with tags, fused parts or gaps)": "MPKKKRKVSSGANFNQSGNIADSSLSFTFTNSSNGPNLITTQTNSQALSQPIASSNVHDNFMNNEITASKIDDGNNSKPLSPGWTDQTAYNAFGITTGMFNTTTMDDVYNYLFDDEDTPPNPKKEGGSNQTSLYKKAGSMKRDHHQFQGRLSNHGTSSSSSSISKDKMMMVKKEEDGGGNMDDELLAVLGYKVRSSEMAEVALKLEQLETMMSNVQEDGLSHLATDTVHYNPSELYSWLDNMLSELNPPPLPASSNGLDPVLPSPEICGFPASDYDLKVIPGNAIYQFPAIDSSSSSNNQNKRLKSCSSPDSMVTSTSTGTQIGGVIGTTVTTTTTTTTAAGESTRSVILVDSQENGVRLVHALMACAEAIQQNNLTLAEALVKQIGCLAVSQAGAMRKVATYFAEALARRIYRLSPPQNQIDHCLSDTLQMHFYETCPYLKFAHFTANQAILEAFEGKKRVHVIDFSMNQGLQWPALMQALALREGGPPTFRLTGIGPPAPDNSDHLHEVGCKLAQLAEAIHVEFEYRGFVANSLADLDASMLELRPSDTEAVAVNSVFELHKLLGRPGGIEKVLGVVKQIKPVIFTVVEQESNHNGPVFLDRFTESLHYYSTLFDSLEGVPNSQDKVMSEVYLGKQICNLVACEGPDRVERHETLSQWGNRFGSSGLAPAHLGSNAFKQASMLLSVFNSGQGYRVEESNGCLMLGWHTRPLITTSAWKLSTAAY", "assay": "Yeast two-hybrid (Y2H) analysis between PPD and DELLA (RGA1)", "assay_type": "binding", "settings": "PPD1-DBD as bait, 15 mM 3AT", "from_the_text": "The ProQuest two-hybrid system (Invitrogen) was used to analyse interactions between PPD1, and RGA1. Full length coding sequences of PPD1, together with truncation or deletion derivatives of PPD1 (PPD1Δppd, PPD1Δtify, and PPD1Δjas*) (FIG. 5), were Gateway sub-cloned into pDEST32 (N-terminal GAL4DBD) or pDEST22 (N-terminal GAL4AD). When translated these generated the following peptide sequences: 55, 65, 66, 67, 68, 7169, which are PPD1-DBD, RGA1, RGA1-AD, PPD1-ppd-DBD, PPD1-tify-DBD, PP1-jas*-DBD respectively.\nCombinations of bait and prey constructs were used to co-transform yeast strain MaV203 (Invitrogen), with selection on synthetic dropout (SD) SD/-Leu/-Trp agar plates. Transformed strains were tested for interactions using 10 μl droplets of 1 in 10 and 1 in 100 dilutions on SD/-Leu/-Trp/-His plates with different concentrations of 3-aminotriazol (3-AT) (Sigma). The PPD1-RGA1 interaction was tested with PPD1-DBD used as bait. Transformed yeast was spotted as a ten-fold dilution on control medium (−2) or selective medium (−3) with 15 mM 3AT. Controls were empty vectors, DBD, GAL4 DNA binding domain, AD, GAL4 activation domain (FIG. 5)."}, "[2]": {"test_system": "Arabidopsis Δppd mutant", "assay": "Complementation of the Arabidopsis Δppd mutant leaf phenotype", "assay_type": "in vivo", "settings": "CaMV35s promoter, Arabidopsis thaliana ecotype Landsberg erecta, FIG. 13", "from_the_text": "The functionality of any PEAPOD sequence can be confirmed by complementation of the Arabidopsis Δppd mutant leaf phenotype. Complementation of the Arabidopsis Δppd mutant leaf phenotype was first used to identify the Arabidopsis PPD gene (White 2006). This was seen by a restoration of the wild type flattened leaf phenotype and normal rosette shape as opposed to the domed leaf and the twisting of the rosette to a “propeller” phenotype.\nArabidopsis thaliana (L.) Heynh ecotype Ler can be used as wild-type (WT). The Δppd loss of function deletion mutant (with PPD1 and PPD2 deleted) is as previously described in White 2006, PNAS 103, 13238-13243.\nPlants are grown in a temperature-controlled glasshouse at a continuous 21° C. or in a controlled environment cabinet at 23° C. in 16-h light_8-h dark cycles.\nConstructs above can be transformed into Arabidopsis by the floral dip infiltration method (Clough and Bent, 1998, Plant J 16, 735-43). The Δppd line is transformed to express the PPD polypeptides by standard techniques. Transgenic plants are confirmed by standard PCR analysis techniques with a combination of transgene-specific and T-DNA primers.\nComplementation of the Δppd line to produce a wild-type leaf and rosette phenotype in T1 seedlings (the off-spring of the infiltrated plant) confirms PEAPOD functionality of the introduced gene, which can be shown in photographs."}}}
{"molecule": "B1", "values": [{"measurement": "interaction with DELLA (RGA1)", "setting": "[1]", "value": "can directly bind to DELLA"}, {"measurement": "PEAPOD functionality by complementation of the Δppd deletion mutant", "setting": "[2]", "value": "functionally equivalent"}]}
